From IntAct's records for PubMed 29039417

B1: BBSome complex member BBS2 (Homo sapiens), Q9BXC9 (parent)
chain: MLLPVFTLKLRHKISPRMVAIGRYDGTHPCLAAATQTGKVFIHNPHTRNQHVSASRVFQSPLESDVSLLSINQAVSCLTAGVLNPELGYDALLVGTQTNLLAYDVYNNSDLFYREVADGANAIVLGTLGDISSPLAIIGGNCALQGFNHEGSDLFWTVTGDNVNSLALCDFDGDGKKELLVGSEDFDIRVFKEDEIVAEMTETEIVTSLCPMYGSRFGYALSNGTVGVYDKTSRYWRIKSKNHAMSIHAFDLNSDGVNELITGWSNGKVDARSDRTGEVIFKDNFSSAIAGVVEGDYRMDGHIQLICCSVDGEIRGYLPGTAEMRGNLMDTSAEQDLIRELSQKKQNLLLELRNYEENAKAELASPLNEADGHRGIIPANTRLHTTLSVSLGNETQTAHTELRISTSNDTIIRAVLIFAEGIFTGESHVVHPSIHNLSSSICIPIVPPKDVPVDLHLKAFVGYRSSTQFHVFESTRQLPRFSMYALTSLDPASEPISYVNFTIAERAQRVVVWLGQNFLLPEDTHIQNAPFQVCFTSLRNGGHLHIKIKLSGEITINTDDIDLAGDIIQSMASFFAIEDLQVEADFPVYFEELRKVLVKVDEYHSVHQKLSADMADHSNLIRSLLVGAEDARLMRDMKTMKSRYMELYDLNRDLLNGYKIRCNNHTELLGNLKAVNQAIQRAGRLRVGKPKNQVITACRDAIRSNNINTLFKIMRVGTASS
partner: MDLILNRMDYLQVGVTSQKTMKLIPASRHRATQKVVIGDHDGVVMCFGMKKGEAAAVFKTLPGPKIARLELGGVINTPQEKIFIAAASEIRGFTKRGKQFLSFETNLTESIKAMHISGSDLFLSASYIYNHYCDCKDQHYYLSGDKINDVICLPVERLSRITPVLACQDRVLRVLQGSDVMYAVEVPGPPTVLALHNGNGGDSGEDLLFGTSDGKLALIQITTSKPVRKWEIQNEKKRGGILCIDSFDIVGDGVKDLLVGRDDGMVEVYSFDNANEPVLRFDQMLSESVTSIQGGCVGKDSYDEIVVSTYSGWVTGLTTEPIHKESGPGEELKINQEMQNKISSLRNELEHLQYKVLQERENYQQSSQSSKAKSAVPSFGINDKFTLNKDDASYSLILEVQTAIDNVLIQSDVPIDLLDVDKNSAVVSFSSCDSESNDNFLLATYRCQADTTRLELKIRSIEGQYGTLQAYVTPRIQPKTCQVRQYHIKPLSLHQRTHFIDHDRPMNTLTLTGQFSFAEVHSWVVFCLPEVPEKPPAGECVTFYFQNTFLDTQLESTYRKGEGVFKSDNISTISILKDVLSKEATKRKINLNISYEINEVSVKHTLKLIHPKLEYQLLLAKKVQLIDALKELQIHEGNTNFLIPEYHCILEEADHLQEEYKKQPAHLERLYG

Variants of: B1
Details: with BBS7, Q8IWZ6-2

effect of a mutation on the interaction	Variant
with no effect	D585A
with no effect	D585K
with no effect	D585E
with no effect	E578K
with no effect	D559K
with no effect	F586K
with no effect	F586A
with no effect	F586E
with no effect	H617A
with no effect	H617K
with no effect	L563E
with no effect	I556A
with no effect	V582K
with no effect	V582E
with no effect	V598A
with no effect	N557K
with no effect	N557A
with no effect	A584E
with no effect	A584K
with no effect	I554K
with no effect	Y603A
with no effect	Y603K
with no effect	Y603E
with no effect	V596A
with no effect	V596K
with no effect	T555A

effect of a mutation on the interaction	Variant
with no effect	G565A
with no effect	G565K
with no effect	G565E
with no effect	D616K
with no effect	D616A
with no effect	L593K
with no effect	L593A
with no effect	A576K
with no effect	F590K
with no effect	M571K
with no effect	M571A
with no effect	A572E
with no effect	L597K
with no effect	L597A
with no effect	L597E
disrupting interaction strength	A564R
with no effect	A564E
with no effect	D579E
with no effect	D579A
with no effect	F575A
with no effect	F575E
with no effect	S605K
with no effect	V600K
with no effect	V600E
with no effect	D613E
with no effect	D613K

effect of a mutation on the interaction	Variant
with no effect	E583A
with no effect	H604E
with no effect	H604A
with no effect	M614K
with no effect	I568A
disrupting interaction strength	I568E
with no effect	I567E
with no effect	Q581E
with no effect	P587E
with no effect	E591K
with no effect	K599E
with no effect	Y589A
with no effect	Y589K
with no effect	Y589E
with no effect	K609E
with no effect	K609A
with no effect	Q608E
with no effect	Q608A
with no effect	E592K
with no effect	L610K
with no effect	F574K
with no effect	F574E
with no effect	H607K
with no effect	H607E
disrupting interaction strength	H607A
with no effect	I561E

effect of a mutation on the interaction	Variant
with no effect	A612E
with no effect	S611E
with no effect	S611A
with no effect	S573E
with no effect	D566E
with no effect	D566A
with no effect	D566K
disrupting interaction strength	D560A
with no effect	V588E
with no effect	V588A
with no effect	E602A
with no effect	A615E
with no effect	A615K
with no effect	R594A
with no effect	T558A
with no effect	T558K
with no effect	T558E
with no effect	I577A
with no effect	I577K
with no effect	L580A
with no effect	D562K
disrupting interaction strength	D562A
with no effect	D601A
with no effect	D601E
with no effect	D601K

Continued, variant first:

Variant	effect of a mutation on the interaction
E578A	with no effect
D559A	with no effect
D559E	with no effect
H617E	with no effect
L563K	with no effect
L563A	with no effect
I556E	with no effect
I556K	with no effect
V582A	with no effect
V598E	with no effect
V598K	with no effect
N557E	with no effect
I554E	with no effect
V596E	with no effect
T555K	with no effect
T555H	disrupting interaction strength
T555E	with no effect
D616E	with no effect
Q569E	with no effect
Q569K	with no effect
Q569A	with no effect
L593E	with no effect
A576E	with no effect
F590E	with no effect
F590A	with no effect
M571E	with no effect
A572K	with no effect

Variant	effect of a mutation on the interaction
A564K	with no effect
A564H	disrupting interaction strength
D579K	with no effect
F575K	with no effect
S605E	disrupting interaction strength
S605A	with no effect
V600A	with no effect
D613A	with no effect
E583K	with no effect
H604K	with no effect
M614A	with no effect
M614E	with no effect
I568K	with no effect
I567A	with no effect
I567K	with no effect
Q581A	with no effect
Q581K	with no effect
K595A	with no effect
K595E	with no effect
P587A	with no effect
P587K	with no effect
E591A	with no effect
S570K	with no effect
S570E	with no effect
S570A	with no effect
K599A	with no effect
Q608K	with no effect

Variant	effect of a mutation on the interaction
E592A	with no effect
L610E	with no effect
L610A	disrupting interaction strength
F574A	with no effect
F574L	disrupting interaction strength
I561K	with no effect
I561C	disrupting interaction strength
I561A	with no effect
A612K	with no effect
S611K	with no effect
S573K	with no effect
S573A	with no effect
D560K	with no effect
D560E	with no effect
V588K	with no effect
E602K	with no effect
V606E	with no effect
V606K	with no effect
V606A	with no effect
R594E	with no effect
R594K	with no effect
I577E	with no effect
L580E	with no effect
L580K	with no effect
D562E	with no effect
